Reference: patent US20250340631A1 (HARBOUR BIOMED SHANGHAI, published 2025)
Substitutions are numbered along the chain they refer to. Blank lines part the entries; values can stand above or below the binder they belong to.

What was measured:
[1] = molecular target: T1, human CD3 on Jurkat cells (human, UniProt P07766 23-207); experiment: FACS on Jurkat cells
T1 construct: whole, on cells; on cells it stands in the whole CD3/TCR complex; also called CD3-expressing cells
Experimental: (§1) Antibodies were assayed for binding affinity by FACS. Test cells include HEK293/hCLDN18.2, HEK293/hCLDN18.1, NUGC4_D8 and Jurkat cells. […] The cell density was adjusted to 10⁶ cells/mL, and 50 μL of the cell suspension was added to each well of a 96-well plate. Antibodies were diluted to different concentrations with FACS buffer, and 50 μL of the antibody dilution was added to each well of the 96-well plate. After 2 h of incubation at 4° C., the plate was washed twice with FACS buffer. […] After 1 h of incubation at 4° C., the plate was washed twice with FACS buffer. The cells were resuspended in fixative solution, and then the fluorescence of the cells was monitored using an FACS instrument (ACEA NovoCyte).

human CLDN18.2 [2] = molecular target: human CLDN18.2 (human); experiment: cell-based or functional assay
[3] = molecular target: CLDN18.2 of SNU620 cells (methionine to leucine at amino acid 149) (human, UniProt P56856-2 1-261); experiment: cell-based or functional assay
CLDN18.2 of SNU620 cells (methionine to leucine at amino acid 149), sequence (P56856 other isoform, or with tags, fused parts or gaps limits assumed): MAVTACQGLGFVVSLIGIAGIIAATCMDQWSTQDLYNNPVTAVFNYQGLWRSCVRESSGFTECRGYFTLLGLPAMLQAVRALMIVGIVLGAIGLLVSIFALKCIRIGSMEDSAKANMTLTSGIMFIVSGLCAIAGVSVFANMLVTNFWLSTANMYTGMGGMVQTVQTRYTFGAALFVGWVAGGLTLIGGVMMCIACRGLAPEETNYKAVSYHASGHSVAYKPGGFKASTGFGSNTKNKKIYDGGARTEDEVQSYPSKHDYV

human CLDN18.2 [4] = molecular target: T2, human CLDN18.2 (human); experiment: FACS on HEK293/hCLDN18.2 cells
T2 construct: the HEK293 line was made with a GenScript plasmid; also called hCLDN18.2
Experimental: as §1

human CLDN18.2 [5] = molecular target: T2, human CLDN18.2; experiment: FACS on NUGC4_D8 cells
Experimental: as §1

human CLDN18.2 [6] = molecular target: T2, human CLDN18.2; experiment: FACS on SNU601 cells
Experimental: (§2) The binding affinity of an antibody was detected by FACS using human CLDN18.1-expressing HEK293 cells, human CLDN18.2-expressing HEK293 cells, NUGC4_D8 cells and SNU601 cells endogenously expressing human CLDN18.2 (Cobioer, CBP60507). […] The cell density was adjusted to 10⁶ cells/mL, and 50 μL of the cell suspension was added to each well of a 96-well plate. Antibodies were diluted to different concentrations with FACS buffer, and 50 μL of the antibody dilution was added to each well of the 96-well plate. After 2 h of incubation at 4° C., the plate was washed twice with FACS buffer. […] After 1 h of incubation at 4° C., the plate was washed twice with FACS buffer. The cells were resuspended in fixative solution, and then the fluorescence of the cells was monitored using an FACS instrument (ACEA NovoCyte).

human CLDN18.2 [7] = molecular target: T2, human CLDN18.2; experiment: FACS on NUGC4_D8 cells; remark: listed apart in the source
Experimental: as §2

human CLDN18.2 [8] = molecular target: T2, human CLDN18.2; experiment: competition FACS on HEK293/hCLDN18.2 cells; competitor 10 nM biotinylated PR000400
Experimental: (§3) This example is to study the binding of anti-human CLDN18.2 HCAb monoclonal antibodies to the epitope region of human CLDN18.2 antigen. Competitive binding experiments were performed at the cellular level using HEK293/hCLDN18.2 cells overexpressing human CLDN18.2. […] Then suspension of HEK293/hCLDN18.2 cells overexpressing human CLDN18.2 were adjusted to 3×10⁶ cells/mL, seeded 50 L/well. The cells were co-incubated at 4° C. for 2 h. The cells in each well were washed twice with 200 μL of pre-cooled FACS buffer (2% FBS in PBS) and centrifuged at 500 g at 4° C. for 5 min, and then the supernatant was discarded. […] The cells in each well were washed twice with 200 μL of pre-cooled FACS buffer (2% FBS in PBS) and centrifuged at 500 g at 4° C. for 5 min, and then the supernatant was discarded. Finally, the cells in each well were resuspended in 200 μL of pre-cooled FACS buffer, and the fluorescence signal values were read using a BD FACS CANTOII.

human CLDN18.2 [9] = molecular target: T2, human CLDN18.2; experiment: competition FACS on HEK293/hCLDN18.2 cells; competitor 200 nM biotinylated PR004549
Experimental: as §3

T1 sequence (P07766 23-207): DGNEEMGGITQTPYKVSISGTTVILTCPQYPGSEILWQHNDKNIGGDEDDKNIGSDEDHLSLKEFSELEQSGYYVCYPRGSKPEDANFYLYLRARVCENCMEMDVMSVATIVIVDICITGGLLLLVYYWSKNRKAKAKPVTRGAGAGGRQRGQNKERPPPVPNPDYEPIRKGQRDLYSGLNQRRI

EC50 [1]: 81.9 nM
TDCC, Titer EC50 (pM), NUGC4_D8 (human CLDN18.2 [2]): 14.8 pM
TDCC, Titer EC50 (pM), SNU620 [3]: 41.1 pM
EC50 (human CLDN18.2 [4]): 25.3 nM
B1: PR005399 (bispecific antibody, human IgG1, lambda, L234A L235A)
chain: EVQLVESGGGLVQPGGSLRLSCAASGFTFSSYWMHWVRQVPGKGLVWVSRISSAGSRTIYADSVKGRFTISRDNAKNTLYLQMNSLRAEDTAVYYCARGEDHDILTGYPIRGQGTTVTVSSGGGGSGGGGSGGGGSEVQLVESGGGLVQPGGSLRLSCAASGFTFSSYWMHWVRQVPGKGLVWVSRISSAGSRTIYADSVKGRFTISRDNAKNTLYLQMNSLRAEDTAVYYCARGEDHDILTGYPIRGQGTTVTVSSASEPKSSDKTHTCPPCPAPEAAGGPSVFLFPPKPKDTLMISRTPEVTCVVVDVSHEDPEVKFNWYVDGVEVHNAKTKPREEQYNSTYRVVSVLTVLHQDWLNGKEYKCKVSNKALPAPIEKTISKAKGQPREPQVCTLPPSREEMTKNQVSLSCAVKGFYPSDIAVEWESNGQPENNYKTTPPVLDSDGSFFLVSKLTVDKSRWQQGNVFSCSVMHEALHNHYTQKSLSLSPGK
heavy: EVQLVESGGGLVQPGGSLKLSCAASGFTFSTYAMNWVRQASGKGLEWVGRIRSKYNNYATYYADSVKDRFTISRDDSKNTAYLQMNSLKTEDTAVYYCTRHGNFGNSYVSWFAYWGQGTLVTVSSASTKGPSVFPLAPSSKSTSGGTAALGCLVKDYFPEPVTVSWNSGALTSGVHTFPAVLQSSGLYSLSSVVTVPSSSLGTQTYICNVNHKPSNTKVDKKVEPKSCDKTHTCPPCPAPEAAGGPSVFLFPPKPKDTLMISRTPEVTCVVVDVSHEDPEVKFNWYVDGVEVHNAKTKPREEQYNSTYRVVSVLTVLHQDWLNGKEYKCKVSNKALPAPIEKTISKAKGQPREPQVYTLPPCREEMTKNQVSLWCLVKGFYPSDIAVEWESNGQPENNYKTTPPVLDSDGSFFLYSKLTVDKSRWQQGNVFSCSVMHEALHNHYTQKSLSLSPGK
light: QAVVTQEPSLTVSPGGTVTLTCRSSTGAVTTSNYANWVQQKPGQAPRGLIGGTNKRAPWTPARFSGSLLGDKAALTLLGAQPEDEAEYFCALWYSNLWVFGGGTKLTVLGQPKAAPSVTLFPPSSEELQANKATLVCLISDFYPGAVTVAWKADSSPVKAGVETTTPSKQSNNKYAASSYLSLTPEQWKSHRSYSCQVTHEGSTVEKTVAPTECS
notes: structure 1; CD3 Fab from PR003886, CLDN18.2 VH from PR007243; LALA

EC50 [1]: 41 nM
EC50 (human CLDN18.2 [5]): 44.2 nM
B2: PR007082 (bispecific antibody, human IgG1, lambda)
chain: B1 chain with S52N, S53H, A54D, G55S, S188N, S189H, A190D, G191S, G281A
heavy: EVQLVESGGGLVQPGGSLKLSCAASGFTFSTYAMNWVRQASGKGLEWVGRIRSKYNNYATYYADSVKDRFTISRDDSKNTAYLQMNSLKTEDTAVYYCTRHGNFGNSYVSWFAYWGQGTLVTVSSASTKGPSVFPLAPSSKSTSGGTAALGCLVKDYFPEPVTVSWNSGALTSGVHTFPAVLQSSGLYSLSSVVTVPSSSLGTQTYICNVNHKPSNTKVDKKVEPKSCDKTHTCPPCPAPEAAGAPSVFLFPPKPKDTLMISRTPEVTCVVVDVSHEDPEVKFNWYVDGVEVHNAKTKPREEQYNSTYRVVSVLTVLHQDWLNGKEYKCKVSNKALPAPIEKTISKAKGQPREPQVYTLPPCREEMTKNQVSLWCLVKGFYPSDIAVEWESNGQPENNYKTTPPVLDSDGSFFLYSKLTVDKSRWQQGNVFSCSVMHEALHNHYTQKSLSLSPGK
light: B1 light
notes: structure 1; CD3 Fab from PR003886, CLDN18.2 VH from PR007248; AAA

EC50 (human CLDN18.2 [6]): 12.8 nM
Emax (MFI) (human CLDN18.2 [6]): 18300 MFI
EC50 (human CLDN18.2 [7]): 21.8 nM
Emax (MFI) (human CLDN18.2 [7]): 265000 MFI
IC50 (human CLDN18.2 [8]): 35.4 nM
Maximum inhibition rate (%) (human CLDN18.2 [8]): 98.5%
IC50 (human CLDN18.2 [9]): 31 nM
Maximum inhibition rate (%) (human CLDN18.2 [9]): 94.2%
B3: PR004949 (antibody, V domains shown)
VH: EVQLVESGGGLVQPGGSLRLSCAASGFTFSAYWMHWVRQVPGRGLVWVSRINSDGSRTIYADSVKGRFTISRDNAKNTLYLQMNSLRAEDTAVYLCARGEDHDMLTGYPVRGQGTMVTVSS
notes: anti-CLDN18.2 HCAb: VH fused to human IgG1 Fc, no light chain; also called R1029P021C02

EC50 (human CLDN18.2 [6]): 14.6 nM
Emax (MFI) (human CLDN18.2 [6]): 13600 MFI
EC50 (human CLDN18.2 [7]): 16.1 nM
Emax (MFI) (human CLDN18.2 [7]): 206000 MFI
IC50 (human CLDN18.2 [8]): 23.5 nM
Maximum inhibition rate (%) (human CLDN18.2 [8]): 98.5%
IC50 (human CLDN18.2 [9]): 19.9 nM
Maximum inhibition rate (%) (human CLDN18.2 [9]): 94.3%
B4: PR004950 (antibody, V domains shown)
VH: B3 VH with R43K, L95Y, M104I, V110I
notes: anti-CLDN18.2 HCAb: VH fused to human IgG1 Fc, no light chain; also called R1029P021F07
